Test results published in patent US20170306037A1 (Novartis, published 2017).

Key:
Assay in all cases: specificity ELISA, bacterial lysate on HisGrab nickel plate
[1] = target: T1, BCMA (human, UniProt Q02223)
T1 sequence (receptor, looked up): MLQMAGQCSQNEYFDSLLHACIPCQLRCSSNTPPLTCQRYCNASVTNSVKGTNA
Procedure: (§1) For the specificity ELISA, a crude cell lysate was made from bacteria expressing members of the TNFRSF family. To prevent nonspecific binding to the plate 50 μL of 5% BSA was added per mL of bacterial lysate. […] The plate was then rinsed three times with PBST, then MAB was diluted to 0.5 μg/mL in 10% FBS in PBS and 100 μL was added to each well. The plate was incubated for 1 hour at room temperature and then rinsed three times with PBST. Anti-human kappa antibody (Sigma #A7164) conjugated to HRP was diluted 1:5000 in 1:1 PBST: 10% FBS in PBS and 100 μL added to each well. The plate was incubated for 1 hour at room temperature, and then washed three times with PBST. 100 μL of SureBlue TMB substrate was added to each well and the plate was incubated for about 10 min at room temperature before stopping the reaction with 100 μL /well of 2N H₂SO₄.

[2] = target: CD40 (human, UniProt P25942)
CD40, sequence (P25942 21-193 limits assumed): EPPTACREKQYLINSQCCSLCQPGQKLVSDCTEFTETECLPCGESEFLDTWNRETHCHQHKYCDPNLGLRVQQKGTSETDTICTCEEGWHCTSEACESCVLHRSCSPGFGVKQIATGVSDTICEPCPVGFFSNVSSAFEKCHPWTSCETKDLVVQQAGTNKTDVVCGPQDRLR
Procedure: as §1

[3] = target: DR5 (human, UniProt O14763)
Procedure: as §1

[4] = target: T2, CD137 (human, UniProt Q07011)
T2 construct: also called TNFRSF9
Procedure: as §1

[5] = target: T3, HVEM (human, UniProt Q92956)
T3 sequence (receptor, looked up): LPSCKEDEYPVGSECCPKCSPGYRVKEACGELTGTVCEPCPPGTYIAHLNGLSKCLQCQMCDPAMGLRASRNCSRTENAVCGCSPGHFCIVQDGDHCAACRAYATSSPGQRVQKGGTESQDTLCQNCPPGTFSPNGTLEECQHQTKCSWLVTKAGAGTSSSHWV
Procedure: as §1

[6] = target: T4, OPG (human, UniProt O00300)
T4 sequence (receptor, looked up): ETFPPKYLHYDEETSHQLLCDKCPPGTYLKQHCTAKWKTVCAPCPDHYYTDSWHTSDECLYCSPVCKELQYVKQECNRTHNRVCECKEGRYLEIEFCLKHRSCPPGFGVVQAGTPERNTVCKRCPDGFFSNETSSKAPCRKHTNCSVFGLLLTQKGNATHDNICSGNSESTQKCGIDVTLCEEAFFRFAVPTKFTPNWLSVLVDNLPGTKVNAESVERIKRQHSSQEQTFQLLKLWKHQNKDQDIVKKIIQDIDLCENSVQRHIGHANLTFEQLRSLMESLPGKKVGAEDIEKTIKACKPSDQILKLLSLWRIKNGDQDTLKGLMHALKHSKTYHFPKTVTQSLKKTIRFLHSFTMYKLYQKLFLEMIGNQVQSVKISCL
Procedure: as §1

[7] = target: T5, DcR1 (human, UniProt O14798)
T5 sequence (receptor, looked up): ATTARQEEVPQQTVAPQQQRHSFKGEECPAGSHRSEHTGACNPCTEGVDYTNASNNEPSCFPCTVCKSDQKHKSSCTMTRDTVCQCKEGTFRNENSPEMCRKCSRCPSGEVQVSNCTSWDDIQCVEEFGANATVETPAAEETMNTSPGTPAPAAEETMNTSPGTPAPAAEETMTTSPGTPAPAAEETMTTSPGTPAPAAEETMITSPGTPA
Procedure: as §1

[8] = target: T6, DcR3 (human, UniProt O95407)
T6 sequence (receptor, looked up): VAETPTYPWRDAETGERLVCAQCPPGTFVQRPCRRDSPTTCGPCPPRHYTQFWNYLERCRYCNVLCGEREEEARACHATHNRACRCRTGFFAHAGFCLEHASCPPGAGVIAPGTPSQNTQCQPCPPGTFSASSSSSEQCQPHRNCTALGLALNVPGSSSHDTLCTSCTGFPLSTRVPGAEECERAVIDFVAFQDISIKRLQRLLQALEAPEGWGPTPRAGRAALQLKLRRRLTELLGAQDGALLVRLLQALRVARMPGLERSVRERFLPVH
Procedure: as §1

[9] = target: TNFR3 (human, UniProt P36941)
TNFR3, sequence (P36941 31-227 limits assumed): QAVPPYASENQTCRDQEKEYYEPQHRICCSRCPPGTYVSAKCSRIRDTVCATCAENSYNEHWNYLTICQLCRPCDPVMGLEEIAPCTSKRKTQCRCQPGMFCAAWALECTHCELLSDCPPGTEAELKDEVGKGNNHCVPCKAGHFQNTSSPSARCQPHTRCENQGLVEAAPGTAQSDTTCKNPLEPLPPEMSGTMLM
Procedure: as §1

[10] = target: T7, TNFR1 (human, UniProt P19438)
T7 sequence (receptor, looked up): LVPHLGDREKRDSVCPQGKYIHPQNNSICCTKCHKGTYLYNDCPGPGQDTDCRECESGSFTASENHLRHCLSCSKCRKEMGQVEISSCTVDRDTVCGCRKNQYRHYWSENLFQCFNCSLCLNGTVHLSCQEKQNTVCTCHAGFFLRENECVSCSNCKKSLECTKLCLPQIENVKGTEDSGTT
Procedure: as §1

[11] = target: T8, CD30 (human, UniProt P28908)
T8 sequence (receptor, looked up): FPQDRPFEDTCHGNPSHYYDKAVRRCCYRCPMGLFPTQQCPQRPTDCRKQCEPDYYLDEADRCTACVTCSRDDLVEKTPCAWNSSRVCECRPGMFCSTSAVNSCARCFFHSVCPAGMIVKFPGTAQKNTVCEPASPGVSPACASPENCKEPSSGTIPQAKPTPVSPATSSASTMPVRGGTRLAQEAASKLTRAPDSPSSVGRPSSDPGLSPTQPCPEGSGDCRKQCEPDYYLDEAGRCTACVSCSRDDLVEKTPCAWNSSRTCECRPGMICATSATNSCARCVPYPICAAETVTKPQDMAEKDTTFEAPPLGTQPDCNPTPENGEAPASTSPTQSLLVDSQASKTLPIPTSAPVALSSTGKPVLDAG
Procedure: as §1

Row | Binder | binding result [1] | binding result [2] | binding result [3] | binding result [4] | binding result [5] | binding result [6] | binding result [7] | binding result [8] | binding result [9] | binding result [10] | binding result [11]
1 | MAB4 (IgG1 kappa) (antibody, V domains shown) VH: EVQLVESGGGLVQSGGSLRLSCAASGFSLSSYGVDWVRQAPGKGLEWVGVIWGGGGTYYASSLMGRFTISRDNSKNTLYLQMNSLRAEDTAVYYCAKHAYGHDGGFAMDYWGQGTLVTVSS VL: EIVMTQSPATLSVSPGERATLSCRASESVSSNVAWYQQRPGQAPRLLIYGASNRATGIPARFSGSGSGTDFTLTISRLEPEDFAVYYCGQSYSYPFTFGQGTKLEIKR | no binding (tested: not on the sheet; paragraph 335: 0.5 µg/mL) | no binding (tested: not on the sheet; paragraph 335: 0.5 µg/mL) | no binding (tested: not on the sheet; paragraph 335: 0.5 µg/mL) | no binding (tested: not on the sheet; paragraph 335: 0.5 µg/mL) | no binding (tested: not on the sheet; paragraph 335: 0.5 µg/mL) | no binding (tested: not on the sheet; paragraph 335: 0.5 µg/mL) | no binding (tested: not on the sheet; paragraph 335: 0.5 µg/mL) | no binding (tested: not on the sheet; paragraph 335: 0.5 µg/mL) | no binding (tested: not on the sheet; paragraph 335: 0.5 µg/mL) | no binding (tested: not on the sheet; paragraph 335: 0.5 µg/mL) | no binding (tested: not on the sheet; paragraph 335: 0.5 µg/mL)
2 | MAB5 (IgG1 kappa) (antibody, V domains shown, also called MABS (misprint of MAB5)) VH: EVQLVESGGGLVQSGGSLRLSCAASGFSLSSYGVDWVRQAPGKGLEWLGVIWGGGGTYYTSSLMGRFTISRDNSKNTLYLQMNSLRAEDTAVYYCAKHAYGHDGGFAMDYWGQGTLVTVSS VL: EIVMTQSPATLSVSPGERATLSCRASESVSSNVAWYQQRPGQAPRLLIYGASNRATGIPARFSGSGSGTDFTLTISRLEPEDFAVYYCGQSYSYPFTFGQGTKLEIKR | no binding (tested: not on the sheet; paragraph 335: 0.5 µg/mL) | no binding (tested: not on the sheet; paragraph 335: 0.5 µg/mL) | no binding (tested: not on the sheet; paragraph 335: 0.5 µg/mL) | no binding (tested: not on the sheet; paragraph 335: 0.5 µg/mL) | no binding (tested: not on the sheet; paragraph 335: 0.5 µg/mL) | no binding (tested: not on the sheet; paragraph 335: 0.5 µg/mL) | no binding (tested: not on the sheet; paragraph 335: 0.5 µg/mL) | no binding (tested: not on the sheet; paragraph 335: 0.5 µg/mL) | no binding (tested: not on the sheet; paragraph 335: 0.5 µg/mL) | no binding (tested: not on the sheet; paragraph 335: 0.5 µg/mL) | no binding (tested: not on the sheet; paragraph 335: 0.5 µg/mL)
